Source: FireProtDB (doi:10.1073/pnas.88.5.1706)

B1: DNA-Binding protein, P69542 (parent)
chain: MIKVEIKPSQAQFTTRSGVSRQGKPYSLNEQLCYVDLGNEYPVLVKITLDEGQPAYAPGLYTVHLSSFKVGQFGSLMIDRLRLVPAK

Variants of: B1
Conditions: Enterobacteria phage fd; pH 7; 25 °C; GdnHCl; CD; MOPS 50 mM; NaCl 100 mM; reversible: yes; structure 1VQB; whole UniProt chain shown

Row | Variant | ddG of mutation (higher = less stable) [kcal/mol] | denaturant m value [kcal/mol/M] | denaturant midpoint (higher = more stable) [M] | unfolding free energy [kcal/mol]
1 | V35M | 1 | 3.6 | 2.33 | 8
2 | V35L | 2.7 | 4.5 | 1.9 | 6.4
3 | V35I | 0.6 | 3.6 | 2.44 | 8.4
4 | V35C | 1.4 | 4.1 | 2.21 | 7.7
5 | V35F | 3.1 | 3.8 | 1.76 | 5.9
6 | V35A | 2.2 | 3.9 | 2.01 | 6.9
7 | V35C I47C | 7.1 | 4.9 | 0.99 | 1.9
8 | V35L I47L | 3.5 | 4.3 | 1.7 | 5.5
9 | V35L I47M | 5.3 | 5 | 1.37 | 3.7
10 | V35L I47V | 5 | 4.2 | 1.32 | 4
11 | V35L I47F | 3.94 | 4.3 | 1.6 | 5.1
12 | V35A I47L | 2.9 | 4.5 | 1.85 | 6.1
13 | V35A I47V | 4.4 | 4.5 | 1.5 | 4.6
14 | V35A I47M | 4.4 | 4.2 | 1.47 | 4.6
15 | V35M I47L | 1.6 | 4.1 | 2.14 | 7.4
16 | V35M I47M | 3.5 | 3.8 | 1.65 | 5.5
17 | V35M I47F | 2.3 | 4.7 | 1.99 | 6.8
18 | I47L | 0.6 | 3.7 | 2.43 | 8.4
19 | I47A | 7 | 4.3 | 0.87 | 2
20 | I47M | 2.1 | 3.9 | 2.02 | 6.9
21 | I47V | 2.5 | 3.9 | 1.91 | 6.5
22 | V35F I47L | 4.1 | 3.9 | 1.51 | 4.9
23 | V35I I47F | 2 | 4.4 | 2.05 | 7
24 | V35I I47L | 1.1 | 4.2 | 2.27 | 7.9
25 | V35I I47V | 3 | 4.1 | 1.8 | 6
26 | V35I I47M | 2.8 | 4.2 | 1.87 | 6.3
